B1: PDS5B (parent)
chain: IYKKYALQSAAGKDAAKQIAWIKD

Variants of: B1
Assay: protein stability index of a GFP-peptide fusion (GPS, HEK-293T) (PSI 1-6); higher = more stable
Conditions: c terminus: a fixed tail appended
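Further: lentivirally expressed fusions sorted by FACS into six bins by GFP to DsRed ratio, PSI derived from sequencing read proportions per bin multiplied by bin number.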

Going from IYKKYALQSAAGKDAAKQIAWIKA [D24A] to IYKKYALQSAAGKDAAKQIAWIKC [D24C], the protein stability index rises from 2 to 2.08.

Compared with IYKKYALQSAAGKDAAKQIAWIKE [D24E], IYKKYALQSAAGKDAAKQIAWIWD [K23W] is higher in protein stability index: 1.75 for the first, 2.62 for the second.

Going from IYKKYALQSAAGKDAAKQIAWIQD [K23Q] to IYKKYALQSAAGKDAAKQIAWIDD [K23D], the protein stability index rises from 2.23 to 2.98.

Compared with IYKKYALQSAAGKDAAKQIAWIAD [K23A], IYKKYALQSAAGKDAAKQIAWIED [K23E] is higher in protein stability index: 2.11 for the first, 2.53 for the second.

First: IYKKYALQSAAGKDAAKQIAWIMD [K23M]
Second: IYKKYALQSAAGKDAAKQIAWICD [K23C]
The protein stability index of the first is higher: 2 for the first, 1.47 for the second.

Going from IYKKYALQSAAGKDAAKQIAWIID [K23I] to IYKKYALQSAAGKDAAKQIAWILD [K23L], the protein stability index rises from 2.64 to 3.36.

First: IYKKYALQSAAGKDAAKQIAWIND [K23N]
Second: IYKKYALQSAAGKDAAKQIAWIHD [K23H]
The protein stability index of the first is lower: 2.24 for the first, 2.55 for the second.

First: IYKKYALQSAAGKDAAKQIAWIFD [K23F]
Second: IYKKYALQSAAGKDAAKQIAWIPD [K23P]
The protein stability index of the first is higher: 2.39 for the first, 2.36 for the second.

First: IYKKYALQSAAGKDAAKQIAWIVD [K23V]
Second: IYKKYALQSAAGKDAAKQIAWIRD [K23R]
The protein stability index of the first is higher: 1.54 for the first, 1.52 for the second.

First: IYKKYALQSAAGKDAAKQIAWISD [K23S]
Second: IYKKYALQSAAGKDAAKQIAWITD [K23T]
The protein stability index of the first is higher: 2.98 for the first, 2.18 for the second.

Compared with IYKKYALQSAAGKDAAKQIAWIYD [K23Y], IYKKYALQSAAGKDAAKQIAWIGD [K23G] is higher in protein stability index: 2.44 for the first, 2.68 for the second.

Compared with IYKKYALQSAAGKDAAKQLAWIKD [I19L], IYKKYALQSAAGKDAAKQYAWIKD [I19Y] is higher in protein stability index: 1.81 for the first, 1.99 for the second.

Going from IYKKYALQSAAGKDAAKQTAWIKD [I19T] to IYKKYALQSAAGKDAAKQVAWIKD [I19V], the protein stability index falls from 2.77 to 2.49.

Compared with IYKKYALQSAAGKDAAKQNAWIKD [I19N], IYKKYALQSAAGKDAAKQRAWIKD [I19R] is lower in protein stability index: 3.59 for the first, 2.38 for the second.

Compared with IYKKYALQSAAGKDAAKQSAWIKD [I19S], IYKKYALQSAAGKDAAKQKAWIKD [I19K] is higher in protein stability index: 2.6 for the first, 3.01 for the second.

Going from IYKKYALQSAAGKDAAKQFAWIKD [I19F] to IYKKYALQSAAGKDAAKQHAWIKD [I19H], the protein stability index rises from 2.29 to 3.34.

Compared with IYKKYALQSAAGKDAAKQMAWIKD [I19M], IYKKYALQSAAGKDAAKQWAWIKD [I19W] is lower in protein stability index: 1.97 for the first, 1.93 for the second.

Going from IYKKYALQSAAGKDAAKQGAWIKD [I19G] to IYKKYALQSAAGKDAAKQQAWIKD [I19Q], the protein stability index falls from 3.46 to 2.52.

Going from IYKKYALQSAAGKDAAKQPAWIKD [I19P] to IYKKYALQSAAGKDAAKQIAWCKD [I22C], the protein stability index falls from 3.11 to 2.75.

First: IYKKYALQSAAGKDAAKQIAWAKD [I22A]
Second: IYKKYALQSAAGKDAAKQIAWWKD [I22W]
The protein stability index of the first is higher: 3.14 for the first, 2.28 for the second.

Going from IYKKYALQSAAGKDAAKQIAWVKD [I22V] to IYKKYALQSAAGKDAAKQIAWDKD [I22D], the protein stability index rises from 3.21 to 3.78.

Going from IYKKYALQSAAGKDAAKQIAWEKD [I22E] to IYKKYALQSAAGKDAAKQIAWPKD [I22P], the protein stability index falls from 4.49 to 3.1.

Going from IYKKYALQSAAGKDAAKQIAWRKD [I22R] to IYKKYALQSAAGKDAAKQIAWKKD [I22K], the protein stability index falls from 3.43 to 3.21.

Going from IYKKYALQSAAGKDAAKQIAWTKD [I22T] to IYKKYALQSAAGKDAAKQIAWSKD [I22S], the protein stability index falls from 3.31 to 3.09.

Compared with IYKKYALQSAAGKDAAKQIAWHKD [I22H], IYKKYALQSAAGKDAAKQIAWNKD [I22N] is higher in protein stability index: 3.12 for the first, 3.26 for the second.

Going from IYKKYALQSAAGKDAAKQIAWMKD [I22M] to IYKKYALQSAAGKDAAKQIAWGKD [I22G], the protein stability index rises from 2.14 to 2.8.

First: IYKKYALQSAAGKDAAKQIAWYKD [I22Y]
Second: IYKKYALQSAAGKDAAKQIAWFKD [I22F]
The protein stability index of the first is higher: 2.52 for the first, 2.29 for the second.

Compared with IYKKYALQSAAGKDAAKQIAWLKD [I22L], IYKKYALQSAAGKDAAKQIAWQKD [I22Q] is higher in protein stability index: 2.33 for the first, 3.27 for the second.

First: IYKKYALQSAAGKDAAKQIGWIKD [A20G]
Second: IYKKYALQSAAGKDAAKQILWIKD [A20L]
The protein stability index of the first is higher: 2.25 for the first, 1.89 for the second.

Going from IYKKYALQSAAGKDAAKQIDWIKD [A20D] to IYKKYALQSAAGKDAAKQIFWIKD [A20F], the protein stability index falls from 3.39 to 1.95.

Compared with IYKKYALQSAAGKDAAKQIYWIKD [A20Y], IYKKYALQSAAGKDAAKQINWIKD [A20N] is higher in protein stability index: 2.22 for the first, 2.68 for the second.

First: IYKKYALQSAAGKDAAKQIMWIKD [A20M]
Second: IYKKYALQSAAGKDAAKQIHWIKD [A20H]
The protein stability index of the first is lower: 2.02 for the first, 2.07 for the second.

Going from IYKKYALQSAAGKDAAKQIEWIKD [A20E] to IYKKYALQSAAGKDAAKQITWIKD [A20T], the protein stability index falls from 2.66 to 2.23.

Compared with IYKKYALQSAAGKDAAKQICWIKD [A20C], IYKKYALQSAAGKDAAKQIQWIKD [A20Q] is higher in protein stability index: 2.18 for the first, 2.29 for the second.

Going from IYKKYALQSAAGKDAAKQIPWIKD [A20P] to IYKKYALQSAAGKDAAKQIIWIKD [A20I], the protein stability index falls from 2.66 to 2.31.

First: IYKKYALQSAAGKDAAKQISWIKD [A20S]
Second: IYKKYALQSAAGKDAAKQIKWIKD [A20K]
The protein stability index of the first is higher: 2.4 for the first, 2.26 for the second.

First: IYKKYALQSAAGKDAAKQIWWIKD [A20W]
Second: IYKKYALQSAAGKDAAKQIVWIKD [A20V]
The protein stability index of the first is higher: 2.68 for the first, 2.08 for the second.

First: IYKKYALQSAAGKDAAKQIRWIKD [A20R]
Second: IYKKYALQSAAGKDAAKQIASIKD [W21S]
The protein stability index of the first is lower: 1.84 for the first, 3.19 for the second.

Going from IYKKYALQSAAGKDAAKQIAMIKD [W21M] to IYKKYALQSAAGKDAAKQIAHIKD [W21H], the protein stability index falls from 3.2 to 2.75.

Going from IYKKYALQSAAGKDAAKQIACIKD [W21C] to IYKKYALQSAAGKDAAKQIAEIKD [W21E], the protein stability index falls from 3.02 to 2.91.

Going from IYKKYALQSAAGKDAAKQIAGIKD [W21G] to IYKKYALQSAAGKDAAKQIAKIKD [W21K], the protein stability index falls from 2.92 to 2.65.

Compared with IYKKYALQSAAGKDAAKQIALIKD [W21L], IYKKYALQSAAGKDAAKQIAVIKD [W21V] is higher in protein stability index: 2.19 for the first, 2.72 for the second.

First: IYKKYALQSAAGKDAAKQIAIIKD [W21I]
Second: IYKKYALQSAAGKDAAKQIAPIKD [W21P]
The protein stability index of the first is lower: 2.88 for the first, 3.57 for the second.

Compared with IYKKYALQSAAGKDAAKQIADIKD [W21D], IYKKYALQSAAGKDAAKQIATIKD [W21T] is higher in protein stability index: 3.05 for the first, 3.55 for the second.

Compared with IYKKYALQSAAGKDAAKQIAQIKD [W21Q], IYKKYALQSAAGKDAAKQIAAIKD [W21A] is higher in protein stability index: 3.09 for the first, 3.22 for the second.

Going from IYKKYALQSAAGKDAAKQIAYIKD [W21Y] to IYKKYALQSAAGKDAAKQIAFIKD [W21F], the protein stability index falls from 2.42 to 2.31.

Going from IYKKYALQSAAGKDAAKQIARIKD [W21R] to IYKKYALQSAAGKDAAKQIANIKD [W21N], the protein stability index rises from 2.74 to 3.83.

— the supplement of paper PMC10567573
